Columns and labels:
[1] = target: HIV-1 IAVI-C18 envelope glycoprotein (Env) on pseudovirus (HIV-1); experiment: cell-based or functional assay
[2] = target: aMLV envelope protein on pseudovirus (aMLV); experiment: cell-based or functional assay
[3] = target: HIV-1 92BR020 envelope protein (Env) on pseudotyped virus (HIV-1 isolate 92BR020); experiment: cell-based or functional assay
[4] = target: HIV-1 APV-17 envelope glycoprotein (Env) on pseudovirus (HIV-1); experiment: cell-based or functional assay
[5] = target: HIV-1 APV-6 envelope glycoprotein (Env) on pseudovirus (HIV-1); experiment: cell-based or functional assay
[6] = target: HIV-1 Env of isolate MGRM-F1-004 (HIV-1); experiment: cell-based or functional assay
[7] = target: HIV-1 Env of isolate MGRM-F1-006 (HIV-1); experiment: cell-based or functional assay
[8] = target: HIV-1 Env of isolate MGRM-F1-008 (HIV-1); experiment: cell-based or functional assay
[9] = target: HIV-1 envelope glycoprotein (Env) of isolate MGRM-C-023, on pseudovirus (HIV-1); experiment: cell-based or functional assay
[10] = target: HIV-1 envelope glycoprotein (Env) of isolate MGRM-C-024, on pseudovirus (HIV-1); experiment: cell-based or functional assay
[11] = target: HIV-1 93IN905 envelope glycoprotein (Env) (HIV-1); experiment: cell-based or functional assay
[12] = target: HIV-1 APV17 envelope glycoprotein (Env) (HIV-1); experiment: cell-based or functional assay
[13] = target: HIV-1 Env of isolate 94KE105 (HIV-1); experiment: cell-based or functional assay
[14] = target: HIV-1 Env of isolate MGRM-A-008 (HIV-1); experiment: cell-based or functional assay
[15] = target: HIV-1 Env of isolate MGRM-A-009 (HIV-1); experiment: cell-based or functional assay
[16] = target: HIV-1 Env of isolate MGRM-A-010 (HIV-1); experiment: cell-based or functional assay
[17] = target: HIV-1 JR-CSF Env I323A (HIV-1 isolate JR-CSF) (UniProt P20871); experiment: cell-based or functional assay
[18] = target: HIV-1 JR-CSF Env I326A (HIV-1 isolate JR-CSF) (UniProt P20871); experiment: cell-based or functional assay
[19] = target: HIV-1 JR-CSF Env I414A (HIV-1 (isolate JR-CSF)) (UniProt P20871); experiment: cell-based or functional assay
[20] = target: HIV-1 JR-CSF Env I424A (HIV-1 (isolate JR-CSF)) (UniProt P20871); experiment: cell-based or functional assay
[21] = target: HIV-1 JR-CSF Env T388A (HIV-1 (isolate JR-CSF)) (UniProt P20871); experiment: cell-based or functional assay
[22] = target: HIV-1 JR-CSF Env V292A (HIV-1 JR-CSF) (UniProt P20871); experiment: cell-based or functional assay
[23] = target: HIV-1 JRFL envelope glycoprotein (Env) (HIV-1); experiment: cell-based or functional assay
[24] = target: JR-FL gp120 ΔV1/ΔV2 (HIV-1 (isolate JR-FL)); experiment: ELISA on coated gp120; EC50 by nonlinear regression
[25] = target: WT JR-FL gp120 (HIV-1 (isolate JR-FL)); experiment: as above
[26] = target: HIV-1 Env of isolate 93MW959 (pseudovirus) (HIV-1 isolate 93MW959, subtype C); experiment: cell-based or functional assay
[27] = target: HIV-1 Env of isolate MG RM-AG-006 (HIV-1); experiment: cell-based or functional assay
[28] = target: HIV-1 94UG103 Env (pseudovirus) (HIV-1); experiment: cell-based or functional assay
[29] = target: HIV-1 MGRM-C-027 Env (pseudovirus) (HIV-1); experiment: cell-based or functional assay
[30] = target: HIV-1 MGRM-D-018 Env (pseudovirus) (HIV-1); experiment: cell-based or functional assay
[31] = target: HIV-1 92UG024 Env (on pseudovirus) (HIV-1); experiment: cell-based or functional assay
[32] = target: HIV-1 93IN905 Env (on pseudovirus) (HIV-1); experiment: cell-based or functional assay
[33] = target: HIV-1 CMU02 Env (on pseudovirus) (HIV-1); experiment: cell-based or functional assay
[34] = target: HIV-1 JRCSF Env (on pseudovirus) (HIV-1) (UniProt P20871); experiment: cell-based or functional assay
[35] = target: HIV-1 JRFL Env (on pseudovirus) (HIV-1); experiment: cell-based or functional assay
[36] = target: HIV-1 MGRM-A-010 Env (on pseudovirus) (HIV-1); experiment: cell-based or functional assay
[37] = target: HIV-1 NL43 Env (on pseudovirus) (HIV-1); experiment: cell-based or functional assay
[38] = target: HIV-1 Env of isolate PVO.4 (subtype B) (HIV-1); experiment: cell-based or functional assay
[39] = target: HIV-1 envelope glycoprotein (Env) of isolate 93TH305, on pseudovirus (HIV-1); experiment: cell-based or functional assay
[40] = target: HIV-1 envelope glycoprotein (Env) of isolate CAAN.A2, on pseudovirus (HIV-1); experiment: cell-based or functional assay
[41] = target: HIV-1 envelope glycoprotein (Env) of isolate MGRM-Chronic-B-002, on pseudovirus (HIV-1); experiment: cell-based or functional assay

In the case of 2G12 (antibody), the IC90 (pseudovirus neutralization) [1] is reported as over 50 µg/mL and the IC90 (pseudovirus neutralization) [2] is reported as over 50 µg/mL.
Work on 1443_C16 (PG16) (TCN-116) (antibody) yielded an IC50, pseudovirus neutralization, 1 hour Virus/Ab Incubation [3] of over 50 µg/mL, an IC50, pseudovirus neutralization, 18 hour Virus/Ab Incubation [3] of over 50 µg/mL and an IC90 (pseudovirus neutralization) [4] of over 50 µg/mL. The IC90 (pseudovirus neutralization) [5] was 44.3 µg/mL, the IC90 (pseudovirus neutralization) [1] was 0.207 µg/mL and the IC90 (pseudovirus neutralization) [2] was over 50 µg/mL.
Substance 4E10 (antibody) has an IC90 (pseudovirus neutralization) [1] of over 50 µg/mL and an IC90 (pseudovirus neutralization) [2] of over 50 µg/mL.
Substance VRC01 (antibody) has an IC50, pseudovirus neutralization [6] of 0.305 µg/mL, an IC50, pseudovirus neutralization [7] of 2.86 µg/mL and an IC50, pseudovirus neutralization [8] of 1.11 µg/mL. For the same substance, the IC50, pseudovirus neutralization [9] was 0.077 µg/mL and the IC50, pseudovirus neutralization [10] was 3.4 µg/mL.
In the case of PGT-122 (antibody), the IC50 neutralization [11] is reported as 0.0138 µg/mL, the IC50 neutralization [12] is reported as 0.522 µg/mL and the IC50 (µg/mL), pseudovirus neutralization [13] is reported as 0.056 µg/mL. It also gave an IC50 (µg/mL), pseudovirus neutralization [14] of over 50 µg/mL, an IC50 (µg/mL), pseudovirus neutralization [15] of 0.012 µg/mL and an IC50 (µg/mL), pseudovirus neutralization [16] of 2.51 µg/mL. For the same substance, the Fold IC50 increase relative to wild-type [17] was 2.2 fold, the Fold IC50 increase relative to wild-type [18] was 0.6 fold and the Fold IC50 increase relative to wild-type [19] was 0.5 fold. It also gave a Fold IC50 increase relative to wild-type [20] of 0.8 fold, a Fold IC50 increase relative to wild-type [21] of 0.3 fold and a Fold IC50 increase relative to wild-type [22] of 1.3 fold. It also gave an IC50 neutralization [23] of 0.0471 µg/mL, an EC50 [24] of 0.3 µg/mL and an EC50 [25] of 0.3 µg/mL.
5145_B14 (PGT-127) (antibody) was tested, and the IC50 (µg/mL) neutralization [26] was 6.95 µg/mL and the neutralization IC50 [27] was 0.021 µg/mL.
In the case of 4838_L06 (PGT-121) (antibody), the neutralization IC80 [28] is reported as 8.85 µg/mL, the neutralization IC80 [29] is reported as 0.0829 µg/mL and the neutralization IC90 [29] is reported as 0.374 µg/mL. For the same substance, the neutralization IC95 [29] was 3.14 µg/mL, the neutralization IC80 [30] was 0.0231 µg/mL and the neutralization IC90 [30] was 0.0414 µg/mL. It also gave a neutralization IC95 [30] of 0.0715 µg/mL.
Substance PGT-143 (4980_N08) (antibody) has an IC50 (ug/ml), pseudovirus neutralization [31] of over 10 µg/mL, an IC50 (ug/ml), pseudovirus neutralization [32] of 0.0021 µg/mL and an IC50 (ug/ml), pseudovirus neutralization [33] of over 10 µg/mL. The IC50 (ug/ml), pseudovirus neutralization [34] was 0.0064 µg/mL, the IC50 (ug/ml), pseudovirus neutralization [35] was over 10 µg/mL and the IC50 (ug/ml), pseudovirus neutralization [36] was 0.0657 µg/mL. The IC50 (ug/ml), pseudovirus neutralization [37] was 0.585 µg/mL, the IC50, pseudovirus neutralization [9] was 0.148 µg/mL and the IC50, pseudovirus neutralization [10] was 0.05 µg/mL.
With PGT-142 (4995_E20) (antibody) the IC50 (ug/ml), pseudovirus neutralization [31] was over 10 µg/mL, the IC50 (ug/ml), pseudovirus neutralization [32] was 0.0017 µg/mL and the IC50 (ug/ml), pseudovirus neutralization [33] was over 10 µg/mL. For the same substance, the IC50 (ug/ml), pseudovirus neutralization [34] was 0.0085 µg/mL, the IC50 (ug/ml), pseudovirus neutralization [35] was over 10 µg/mL and the IC50 (ug/ml), pseudovirus neutralization [36] was 0.0578 µg/mL. For the same substance, the IC50 (ug/ml), pseudovirus neutralization [37] was 0.712 µg/mL, the IC50, pseudovirus neutralization [9] was 0.087 µg/mL and the IC50, pseudovirus neutralization [10] was 0.03 µg/mL.
PGT-121 (antibody) gave an IC50 neutralization [11] of 0.0082 µg/mL, an IC50 neutralization [12] of 0.095 µg/mL and an IC50 (µg/mL), pseudovirus neutralization [13] of 0.029 µg/mL. The IC50 (µg/mL), pseudovirus neutralization [14] was over 50 µg/mL, the IC50 (µg/mL), pseudovirus neutralization [15] was 0.006 µg/mL and the IC50 (µg/mL), pseudovirus neutralization [16] was 2.44 µg/mL. The Fold IC50 increase relative to wild-type [17] was 1.9 fold, the Fold IC50 increase relative to wild-type [18] was 0.7 fold and the Fold IC50 increase relative to wild-type [19] was 0.5 fold. It also gave a Fold IC50 increase relative to wild-type [20] of 0.9 fold, a Fold IC50 increase relative to wild-type [21] of 0.9 fold and a Fold IC50 increase relative to wild-type [22] of 2.7 fold. It also gave an IC50 neutralization [23] of 0.0276 µg/mL, an EC50 [24] of 0.2 µg/mL and an EC50 [25] of 0.2 µg/mL.
In the case of 1496_C09 (PG9) (TCN-109) (antibody), the IC50 neutralization [11] is reported as 0.048 µg/mL, the IC90 (pseudovirus neutralization) [5] is reported as 1.96 µg/mL and the IC50 (µg/mL), pseudovirus neutralization [13] is reported as 37.9 µg/mL. For the same substance, the IC50 [15] was 0.023 µg/mL, the IC50 (µg/mL), pseudovirus neutralization [16] was 0.022 µg/mL and the IC50 (µg/mL), pseudovirus neutralization [6] was 0.175 µg/mL. The IC50 (µg/mL), pseudovirus neutralization [7] was 7.25 µg/mL, the IC50 (µg/mL), pseudovirus neutralization [38] was 24.8 µg/mL and the IC90 (pseudovirus neutralization) [1] was 0.866 µg/mL. The IC50, pseudovirus neutralization [39] was 8.12 µg/mL, the IC50, pseudovirus neutralization [40] was 19.3 µg/mL and the IC50, pseudovirus neutralization [41] was 3.44 µg/mL.
